From the nanobody polyreactivity screen of Harvey et al. (2022)

Experiment: yeast display, Sf9 membrane polyspecificity reagent, FACS + sequencing; frameworks hold sequencing errors
In short: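 After 36–48 hours of galactose induction, yeast (Saccharomyces cerevisiae BJ5465) displaying a synthetic nanobody library were stained at 4 °C for 1 hour with 10% biotinylated, detergent-solubilized Sf9 membrane reagent. Streptavidin microbeads enriched the stained cells before FACS sorting into low and high (top ~1%) gates on anti-HA and streptavidin fluorescence. Each clone's polyreactivity label reflects its gate of origin.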

Sequence | polyreactivity (PSR sort gate)
QFQLVESGGGLVQAGGSLRLSCAASGSIFLWYAMGWYRQAPGKERELVAVITSSGGTTYYADSVKGRFTISRDNAKNTVYLQMNCMKPEDNAVYYSAADFYRHPPGSLTKLYYYWGQGTQVTVSS | low polyreactivity
QVQLVESGGGLVQAGGSLRLSCAASGRIFVGNALGWYRKAPGKERELVAAISGSGDSTYYADSVKGRFTISRDNAKNTVYLQMNSLKPEDTAVYYCNVDYDFVIYYYWYYPGYDYWGQGTQVTVSS | low polyreactivity
QVQLVESGGGLVQAGGTLRLSCAASGSTFYLYAMGWYRQAPGNERELVAAISSAGGSTYYADSVKGRFTISRVNAKNTVYLQMNSLKPEDTAVYYCTRDIRRRGNYWGQGTQVTVSS | high polyreactivity
QVQLVESGGGLVQAGGSLRLSCAASGRTFRLNAMGWYRQAPGKERELVAAITASGGRTYYADSVKGRFTISRDNAKNTVYLQMNSLKPEDTAVYYCNTLSRTDASRFDYWGQGTQVTVSS | high polyreactivity
QVQLVESGGGLVQAGGSLRLSCAASGRTFSGNAMGWYRQAPGKERELVAAINWRGGRTYYADSVKGRFTISRDNAKNTVYLQMNSLKPEDTAVYYCAVSAYKGYDYWGQGTQVTVSS | high polyreactivity
QVQLVESGGGLVQAGGSLRLSCAASGRIFWGSAMGWFRQAPGKERELVAAITRSGGRTYYADSVKGRFTISRDNAKNTVYLQRNSLKPDDTPVYYCAAYYWYKWGYKYGYWGQGTQVTVST | high polyreactivity
QVQLVESGGGLVQAGGSLRLSCAASGSIFRNYAMGWYRQAPGKERELVAVITQRGGRTYYADSVKGRFTISRDNAKNTVYLQMNSLKPEDTAVYYCAASYRGVPEYDSWGQGTQVTVSS | low polyreactivity
QVQLQESGGGLVQAGGSLRLSCAASGNISVTGFMGWYRQAPGKERELVASIGIGGTTYYADSVKGRFSISRDNAKNTVYLQMNSLKPEDTAVYYCAARYLYYAYSYWCQGTQVTVSS | low polyreactivity
QVQLVESGGGLVQAGGSLRLSCAASGSIFSSNAMGWYRQAPGKERELVASIDGGPTTYADSVKGRFTISRDNAKNTVYLQMNSLKPEDTAVYFCKAVYAFNGYDYWGQGTQVTVSS | low polyreactivity
QVQLVESGGGLVQAGGSLRLSCAASGFISRTNAMGWSRQEPGKERELVAGINSGGNTYYADSVKGRFTISRDNAKNTVYLQMNSLKPEDTADYYCAALWSLRRSRPRFDYWGQGTQVTVSS | high polyreactivity
QVQLVESGGGLVQAGGSLRLSCAASGNIFGWYAMGWYRKAPGKERELVAAISSGGRTNYADSVKGRFTISRDYAKNTVYLQMNSLKPEDTAVYYCNKVAGVTGRYYYWGQGTQVTVSS | low polyreactivity
QVQLVESGGGLVQAGGSLRLSCAASGFTFLYNAMGWYRQAPGKERELVAAIDSGGNTNYADSVKGRFTISRDNAKNTVYLQMNSLKPEDTAVYYCAADVVSGGQGTADYDYWGQGTQVTVSS | low polyreactivity
QVQLVESGGGLVQAGGRLRLSCAASGLILSSNALGWYRQAPGKARELVAAITWDGDRTYADSVKGRFTISRDNAKNTVYLQQNSLKPEDTAVYYCAADKQYYWYDWSYEYWGQGTQVTVSW | low polyreactivity
QVQLVESGGGLVQAGGSLLLSCAASGLIFYPYAMGWYRQAPGKEREFVAAITWSGGSTRYADSVKGRFTISRDNAKNTVYLQMNSLKPEDTAVYYCAARYIWWYDYTYTGLDYWGQGTQVTVSS | high polyreactivity
QVQLVESGGGLVQAGVSLRLSCAASGFSFAKNAMAWYRQAPGKERELVADITYSGGSTYADSVKGRFTISLDNAKNTVYFQMNSLKPEDTAVYYCAADSRRRSCYDYWVQGTQVTVSS | low polyreactivity
QVQVVESGGGLVQAGGSLRLSCAASGSTFFFYAMGWYIHAPGKERELVAAISSTGRKYYADSVKGRFTISRDNAKNTVYLQMNSLTPEDTAVYYCAARIYSGYSYWGQCTQVTVSS | high polyreactivity
QVQLVESGGGLVQAGGSLRISCAASGRTFHYNVMGWYTQAPGKERELVAAITNTGGSTYYADSVKGRFTISRDNAKNTVYLQMNSLKPEDTAVYYCAAVIWGRRYGAYPYEYWGQGTQVTVSS | low polyreactivity
QVQLVESGGGLVQAGGSLRLSCAASGRTFKNYAMGWYRQAPGKERELVAAITSGGITNYADSVKGRFTISRDNAKNTVYLQMNSLKPEDTAVYYCNTRRGWRDFDYWGQGTQVTVSS | low polyreactivity
QVQLVESGGGLVQAGGSLRLSCAASGFTFYYYAMGWSRQAPGKERELVAAISSAGGRTYYADSVKGRFTISRDNAKNTVYLQMNSLKPEDTAVYYCAATIKAYPTPLLGDYWGQGTQVTVSS | high polyreactivity
QVQLVESGGGLVQAGGSLRLSCAASGSIFRYNAMGWYRQAPGKERELVAAITSGDSTYYADSVKGRFTISRDNAKNTVYLQMNSLKPEDTAVYYCAADLRYIYWSYYYWGQGTQVTVSS | low polyreactivity
QVQLVESGGGLVQAGGSLRLSRAASGATFYFNAMGWYSQAHGKERELVAGITYSGDSTYYADSVKGRFTLSRDNAKNPVYLQMNSLKPEDTAVYYCAADVDYDLDGDYWGQGTQVTVSS | low polyreactivity
QVQLVESGGGLVQAGGSLRLSCAASGIIFTKYAMGWYRQAPGTERELVAAITSGGRTNYADSVKGRFTISRDNAKNTDYLQMNSLKPEDTAVYYCAARYPSRDLLRRYKYWGQGTQVTVSS | high polyreactivity

Sequence | polyreactivity (PSR sort gate)
QVQLVESGGGLVQAGGSLRLSCAASGSTFVGKVMGWYRQAPGKERELVAAISRGGSTYYADSVKGRFTISRDNAKNTVYLQMNSLKPEDTAVYYCAADVRPWGNYHAQYDYWGQGTQVTVSS | low polyreactivity
QVQLVESGGGLVQAGGRLRLSCAATGRTFWENAMGWYRQAPGKERELVAAISGDSGSTYYADSVKGRFTISRDNAKNTVYLQMNSLKPEDTAVYYCAADSDRDDSYPYYYWGQGTQVTVSS | low polyreactivity
QVQLVESGGGLVQAGGSLRLSCAASGFTFNAHAMGWYRQAPGKERELVAVITRSGGRTYYADSVKGRFTISRDNAKNTVYLQMNSLKPEDTAVYYCAKEGPSRVYQGTDSASDYWGQGTQVTVSS | high polyreactivity
QVQIEESGGGLVQAGRSHRLSCAASGSTFGSYAMRWYRQAPGKERELVAAISASGGSTYYADSVKGRFTISRDNAKHTVYLQMNSLKPEDTAVFYCATVYYSARYNYWGQGTQVTVSS | high polyreactivity
QVQLVESGLGLVQAGGSLRLSCAHSGSTLVYNDMRWYRQAPGKEREFVAAIRSNDGSTYYADSVNGRFTISRDNAKNTVYLQMNSLTPEDTAVYYCAATFSSAFAYYYWGQGTQVTVSS | low polyreactivity
QVQLVESGGGLVQAGCSLRLSCAASGSIFTNYGMGWYRQAPGKERELVADIRARSGSTYYADSVKGRFTISRDNAKNTVYLQMNSLKPEDTAVYYCAARRTSYRFDYSAGYRYGYWGQGTQVTVSS | high polyreactivity
QVQLVESGGGLVQAGGSLRLSCAASGSTFLGNAMGWYRQAPGKERELVAAISGRGGSTYYADSVKGRFTISRDNAKNTVYLQMNSLKPEDTAVYYCAAPLYHYVQYGYWGQGTQVTVSS | high polyreactivity
QVQLVESGGGLVQAGGSLRLSCAASGFIFSYYAMGWYRQAPGKERELVAAITWDGGSTYYADSVKGRFTISRDNAKNTVYLQMNSLKPEDTAVYYCNAYYYYRRPLEGGYGGQGTQVTVSS | low polyreactivity
QVQIVESGGGLVQAGGTLRLSCAPSGRTFAPNTMGWYRHAPGKEREFVARINSRGGSTYADSVKGRFTISRDNAKNTVYLQMNSLKPEDTAVYYCARKPYRGVYRYDYWGQGTQVTVSS | high polyreactivity
QVQLVESGGGLVQAGGSLRLSCAASGRIFNWYAMGWYRQAPGKERELVARISSGDITSYADSVKGRFTISRDNAKNTVYLQMNSLKPEDTAVYYCAARQWFLYDYWGHGTQVTVSS | low polyreactivity
QVQLVESGGGLVQAGGSLRLSCAASGFNFRGNAMGWYRQAPGKERELVARISGSGDSTYYADSVKGRFTISRDNAKNTVYLQMNSLKPEDTAVYYCNADVFPAVEAYDSSIEYYSWGQGTQVTVSS | low polyreactivity
QVQLVESGGGLVQAGGSLRLSCAASGSIFHYYAMGWYRQAPGKVRELVAAISSVGSTYYADSVKGRFTISRDYAKNTVYLQMNSLKPEDTAVYYCAAEAYAKRYVDRYSWYYYWGQGTQVTVSS | high polyreactivity
QVQLVESGGGLVQAGGSLRLSCAASGFTFNRYAMGWYRQAPGKERELVAAITRRGGSTYYADSVKGRFTISRDNAKNTVYLQMNSLKPEYSAVYYCNVDFQAYGIPMDYWGQGTQVTVSS | high polyreactivity
QVQLQESGGGLVQAGGSLRLSCAASGTISPLPAMAWYRQAPGKEREFVAGIDTGAITNYADSVKGRFTISRANAKNTVYLQMNSLIPEDTAVYYCAVFPAAYDYYERYYTYWGQGTQVTVSS | low polyreactivity
QVQLVESGGGLVQAGGSLRLSCAASGFTFGYYTMGWYRQAPGKERELVAAISWSGGSTYYADSVKGRFTISRDNAKNTVYLQMNSLKPEDTAVYYCAAYRYGYDYWGQGTQVTVSS | high polyreactivity
QVQLVESGGGLVQAGGSLRLSCAASGGTFWYYAMGWYRQAPGKERELVASISRGGSTNYADSVKGRFTISRDNAKNTVYLLMNSLKPEDTAVYYCNAGLRVGPRRYVDYEYDYWGQGTQVTVSS | low polyreactivity
QVQLVESGGGLVQAGGSLLLSCAASGSIFSIYAMGWYRQAPGKERELVAAISSSGRTYYADSVKGRFTISRDNAKNTVYLQMNSLKPEDTAVYSCNRVREGKHYYYWGQGTQVTVSS | high polyreactivity
QVQLVESGGGLVQAGGSLRLSCAASGSIFGNNAMGWYRQAPGKERELVAAISSGGSTNYADSVKGRFTISRDNAKNTVYLQMNSLKPEDTAVYYCATYYFYPSWYLLYGEYNYWGQGTQVTVSS | low polyreactivity
QVQIVESGGGLVQAGGSLRLSCAASGRTFYSYAMGWYRQAPGKERELVAAIRWPGVRTYYADSVKGRFTISRDNAKNSFYLQMNSLKPEDTAVYYCAVYRYSGKGYRGPRDYWGQGTQVTVSS | high polyreactivity
QVQLVESGGGLVQAGGSLSLSCAAYGSTFLRNAMGWYRQAPGKKGSWVATISYDGDSTYYADSVKGRFTISRDNAKNTVYLQMYSLKPEDTAVYYCAASYSLTFWDKDDYWGQGTQVTVSS | low polyreactivity
QVQLVESGGGLVQAGGSLRLSCAASGRTLVLNMGWYRPAPGKERELVATINSGGSTYYADSVKGRFTISRDNAKNTVYLQMNSLKPEDTAVYYCAVLSSDGKFDYWGQGTQVTVSS | low polyreactivity
